Reference: PMC7278352

Target: pre-formed paclitaxel-stabilized microtubules (tubulin isolated from porcine brain) (porcine) (UniProt P02550)
Experiment: co-sedimentation; pre-formed paclitaxel-stabilized MTs (100 ug/ml tubulin) incubated 30 min at room temperature with 250 ug/ml protein in General tubulin buffer (80 mM PIPES, 0.5 mM EGTA, 2 mM MgCl2, pH 6.9) with 1 mM GTP and 5% glycerol; spun through a 60% glycerol cushion at 100,000 x g for 40 min; band intensity in pellet and supernatant on SDS-PAGE, 5 repeats

Sequence of UniProt P02550 (P02550 whole entry, looked up): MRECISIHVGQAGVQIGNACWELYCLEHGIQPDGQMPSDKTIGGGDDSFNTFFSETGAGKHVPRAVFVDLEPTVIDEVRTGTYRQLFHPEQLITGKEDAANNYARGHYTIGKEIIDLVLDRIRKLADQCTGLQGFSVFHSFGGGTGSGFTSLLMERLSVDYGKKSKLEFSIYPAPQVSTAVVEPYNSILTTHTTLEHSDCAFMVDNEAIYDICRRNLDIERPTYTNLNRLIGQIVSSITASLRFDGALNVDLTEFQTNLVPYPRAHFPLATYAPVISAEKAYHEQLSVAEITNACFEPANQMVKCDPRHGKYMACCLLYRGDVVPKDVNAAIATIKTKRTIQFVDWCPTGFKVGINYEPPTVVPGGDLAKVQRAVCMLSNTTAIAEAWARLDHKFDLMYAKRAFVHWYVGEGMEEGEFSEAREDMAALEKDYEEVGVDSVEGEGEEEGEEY

Substance: microtubule-associated protein fraction (MAPF)
- percent of protein pelleted with MTs: 78%
